This passage reports binding results from publication PMC2328253.

The target in the data set is T1, His-RosE (Salmonella enterica serotype Typhimurium) (UniProt Q8ZK37).
T1 sequence: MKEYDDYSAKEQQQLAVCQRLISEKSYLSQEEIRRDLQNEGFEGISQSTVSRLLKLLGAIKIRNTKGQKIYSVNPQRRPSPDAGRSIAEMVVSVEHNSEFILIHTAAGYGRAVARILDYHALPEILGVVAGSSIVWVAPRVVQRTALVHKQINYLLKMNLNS
Nature of the data set: EMSA.

As for “TAAAAAGTATTTCTTTGATGATTATTCTTAAATTACGATCATAATCATCGATCGTATCGATCTATTTTTATTGTTTTAATTTGAATAAGAATTTTCTTACAACTGATTAGGCATTAGCTGAAATCAATATTTTTCGATGGAAAGTTCAGG (double strand) [stdA upstream region 1]”, the binding result was “no binding”.
